Substitutions are numbered along the chain they refer to. In names and notes the source's numbering stands.
Assays:
KirBac3.1-SCS [1] = target: T1, KirBac3.1-SCS (Paramagnetospirillum magnetotacticum, UniProt D9N164, C71S/C262S); assay: single-channel recording in planar lipid bilayer; assay type: biochemical; conditions: covalent, at Cys119 near fenestration; pH 7.4, 23 C, -80 mV
T1 construct: prokaryotic Kir channel, native Cys119 kept as only cysteine, expressed in E. coli C41(DE3), Co2+ IMAC, homotetramer, reconstituted in liposomes or bilayers; PDB 6O9U is the native parent, 7N9L/7N9K are SCS and SCS-L124M
T1 sequence (D9N164 1-295 C71S/C262S): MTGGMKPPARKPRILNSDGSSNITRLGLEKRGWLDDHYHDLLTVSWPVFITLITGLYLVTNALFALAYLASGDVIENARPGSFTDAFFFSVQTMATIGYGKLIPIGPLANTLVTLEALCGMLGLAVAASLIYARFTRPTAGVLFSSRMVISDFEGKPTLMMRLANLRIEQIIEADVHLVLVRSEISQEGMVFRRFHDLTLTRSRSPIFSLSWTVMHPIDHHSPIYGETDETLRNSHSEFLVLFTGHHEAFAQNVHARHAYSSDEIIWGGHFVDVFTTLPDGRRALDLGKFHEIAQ

KirBac3.1-SCS [2] = target: T1, KirBac3.1-SCS; assay: ACMA liposome K+ flux assay; single-channel recording; PEGylation gel shift; assay type: biochemical; conditions: covalent, at Cys119 near fenestration; activator; pH 8.5 (flux assay)
[3] = target: the molecule itself; assay: native MS; 200 mM ammonium acetate pH 8.0, 0.5% C8E4 (2x CMC); modified Q-Exactive
[4] = target: the molecule itself; assay: SEC; Superdex 200 10/30 in 20 mM TRIS pH 8.0, 150 mM KCl, 0.02% (w/v) DDM; fractions of the tetramer collected
[5] = target: the molecule itself; assay: crystal structure; sitting drops, vapour diffusion, 4 mg/ml protein; PEG 4,000, PEG 8000, PEG 400, 90 mM HEPES pH 7.5, 1 mM TCEP and 50 mM EDTA or 10 mM CaCl2

CCCCCCCCSS(C)(=O)=O [octyl MTS-reagent (C119-octyl)]
single-channel recording in planar lipid bilayer (KirBac3.1-SCS [1]): channels derivatised with one of three MTS-reagents to titrate the effect of chain length

CCCCCCCCCCSS(C)(=O)=O [decyl-MTS]
ACMA liposome K+ flux assay; single-channel recording; PEGylation gel shift (KirBac3.1-SCS [2]): bound decyl chains (C119-decyl) increased activity relative to wild type

B1: KirBac3.1 (wild type prokaryotic Kir channel) (natural protein)
chain: T1 sequence (D9N164 1-295 C71S/C262S) with S71C, S262C
notes: KirBac3.1, prokaryotic inward rectifier K+ channel; Co-purifies with phospholipids (PG, PE); also called native KirBac3.1; wild type KirBac3.1; source: E. coli C41(DE3), purified (Co2+ IMAC, Superdex 200 SEC, in DDM)
stoichiometry N [3]: 4

B2: KirBac3.1-SCS derivatised with hexyl-MTS at Cys119 (natural protein)
chain: T1 sequence (D9N164 1-295 C71S/C262S)
modifications: hexyl chain from hexyl-methylthiosulfonate on Cys119
notes: KirBac3.1 on the otherwise cysteine-less SCS background (C71S-C262S), native Cys119 kept and derivatised; also called C119-hexyl; source: E. coli C41(DE3), purified, reacted with hexyl-MTS, re-purified by SEC
binding result [4]: binds

B3: KirBac3.1-SCS derivatised with decyl-MTS at Cys119 (natural protein)
chain: T1 sequence (D9N164 1-295 C71S/C262S)
modifications: decyl chain from decyl-methylthiosulfonate on Cys119
notes: KirBac3.1 on the otherwise cysteine-less SCS background (C71S-C262S), native Cys119 kept and derivatised; also called C119-decyl; source: E. coli C41(DE3), purified, reacted with decyl-MTS, re-purified by SEC
binding result [4]: binds

B4: KirBac3.1-SCS (C71S-C262S background) (natural protein)
chain: T1 sequence (D9N164 1-295 C71S/C262S)
notes: KirBac3.1 with two native cysteines mutated to serine; Mutant cDNA bought from Genscript; source: E. coli C41(DE3), purified (Co2+ IMAC, Superdex 200 SEC, in DDM)
binding result [5]: binds

B5: KirBac3.1 L124M (on the C71S-C262S background) (natural protein)
chain: T1 sequence (D9N164 1-295 C71S/C262S) with L124M
notes: KirBac3.1 with L124M on the SCS (C71S-C262S) background; Mutant cDNA bought from Genscript; also called Leu124M; source: E. coli C41(DE3), purified (Co2+ IMAC, Superdex 200 SEC, in DDM)
binding result [5]: binds

From PMC8789855, “Ion currents through Kir potassium channels are gated by anionic lipids” (Nature Communications, 2022)
